Measured values: PMC3785576

Biological target: Bovine dermal collagen type I (bovine) (UniProt P02453)
Assay: ELISA

Sequence of UniProt P02453 (P02453 162-1217, chain 1 of 2): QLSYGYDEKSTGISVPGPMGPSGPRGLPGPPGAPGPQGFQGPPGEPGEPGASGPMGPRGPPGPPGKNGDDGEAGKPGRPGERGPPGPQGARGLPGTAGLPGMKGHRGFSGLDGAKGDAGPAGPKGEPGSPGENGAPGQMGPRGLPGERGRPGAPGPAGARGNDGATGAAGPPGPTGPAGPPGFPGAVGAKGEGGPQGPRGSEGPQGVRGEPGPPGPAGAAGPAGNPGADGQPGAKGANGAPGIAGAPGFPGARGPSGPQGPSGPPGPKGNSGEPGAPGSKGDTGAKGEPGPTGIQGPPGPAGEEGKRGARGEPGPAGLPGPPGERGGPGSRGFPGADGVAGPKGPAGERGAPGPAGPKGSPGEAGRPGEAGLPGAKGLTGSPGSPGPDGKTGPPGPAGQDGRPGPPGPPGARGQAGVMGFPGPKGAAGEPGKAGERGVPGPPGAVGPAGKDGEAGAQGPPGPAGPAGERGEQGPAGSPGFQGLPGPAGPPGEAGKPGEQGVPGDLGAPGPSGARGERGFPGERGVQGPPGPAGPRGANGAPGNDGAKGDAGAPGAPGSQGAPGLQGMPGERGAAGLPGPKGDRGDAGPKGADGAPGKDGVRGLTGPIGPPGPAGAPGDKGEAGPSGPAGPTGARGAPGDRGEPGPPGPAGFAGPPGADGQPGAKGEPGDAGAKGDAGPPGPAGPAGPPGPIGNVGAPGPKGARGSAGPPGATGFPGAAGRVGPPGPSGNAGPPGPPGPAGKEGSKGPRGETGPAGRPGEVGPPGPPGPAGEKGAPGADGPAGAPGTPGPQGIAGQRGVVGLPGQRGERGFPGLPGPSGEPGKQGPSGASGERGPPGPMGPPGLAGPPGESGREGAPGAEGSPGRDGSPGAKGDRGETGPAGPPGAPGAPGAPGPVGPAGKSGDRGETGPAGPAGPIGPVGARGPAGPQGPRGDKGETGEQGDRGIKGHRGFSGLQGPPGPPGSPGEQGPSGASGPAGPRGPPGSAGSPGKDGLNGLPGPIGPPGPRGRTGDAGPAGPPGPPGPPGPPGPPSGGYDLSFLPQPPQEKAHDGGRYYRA
Sequence of UniProt P02453 (P02465 80-1117, chain 2 of 2, further chain): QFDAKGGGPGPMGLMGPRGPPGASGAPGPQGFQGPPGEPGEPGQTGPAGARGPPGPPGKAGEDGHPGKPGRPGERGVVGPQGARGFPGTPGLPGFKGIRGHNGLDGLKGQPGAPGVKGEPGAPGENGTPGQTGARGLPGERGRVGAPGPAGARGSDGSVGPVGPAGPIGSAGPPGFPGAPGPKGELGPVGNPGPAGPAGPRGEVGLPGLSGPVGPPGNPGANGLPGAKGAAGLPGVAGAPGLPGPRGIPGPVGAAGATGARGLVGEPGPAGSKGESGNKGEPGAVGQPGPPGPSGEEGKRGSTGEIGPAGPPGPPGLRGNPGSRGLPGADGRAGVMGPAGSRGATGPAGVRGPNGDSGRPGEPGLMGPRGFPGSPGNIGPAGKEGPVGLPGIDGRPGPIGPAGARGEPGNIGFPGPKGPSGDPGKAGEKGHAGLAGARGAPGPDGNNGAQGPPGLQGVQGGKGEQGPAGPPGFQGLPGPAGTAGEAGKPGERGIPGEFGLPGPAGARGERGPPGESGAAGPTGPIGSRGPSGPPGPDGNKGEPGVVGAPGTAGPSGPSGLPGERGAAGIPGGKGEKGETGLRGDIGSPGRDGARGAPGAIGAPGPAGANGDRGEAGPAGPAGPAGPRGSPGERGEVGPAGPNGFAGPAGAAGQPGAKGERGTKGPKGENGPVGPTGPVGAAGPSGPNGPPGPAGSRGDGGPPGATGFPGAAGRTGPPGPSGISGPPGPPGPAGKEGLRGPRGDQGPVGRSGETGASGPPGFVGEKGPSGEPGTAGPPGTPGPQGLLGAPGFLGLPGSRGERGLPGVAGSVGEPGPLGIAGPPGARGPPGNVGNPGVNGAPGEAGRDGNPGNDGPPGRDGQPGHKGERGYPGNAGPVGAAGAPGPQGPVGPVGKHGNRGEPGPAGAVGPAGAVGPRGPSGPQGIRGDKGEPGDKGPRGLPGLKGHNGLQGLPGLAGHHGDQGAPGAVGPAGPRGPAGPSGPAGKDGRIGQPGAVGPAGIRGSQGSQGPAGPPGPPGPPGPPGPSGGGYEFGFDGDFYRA

| IC50 [nM] | Substance |
| --- | --- |
| 2.5 | Antibody (anti-Fc) induced oligomers of DDR1-Fc (from UniProt Q08345 21-417) (complex) |
| 7.85 | Fc-tagged extracellular domain of human DDR1 (dimeric DDR1-Fc) (from UniProt Q08345 21-417) (Fc fusion) |
